Test results taken from the nanobody polyreactivity screen of Harvey et al. (2022).

Test: yeast display, Sf9 membrane polyspecificity reagent, FACS + sequencing; frameworks hold sequencing errors
How it was run: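 A synthetic nanobody library was expressed on Saccharomyces cerevisiae BJ5465 by galactose induction for 36–48 hours. The library was stained for 1 hour at 4 °C with 10% biotinylated, detergent-solubilized Sf9 membrane reagent and enriched with streptavidin microbeads before FACS. Low and high (top ~1%) gates were set on anti-HA fluorescence for expression and streptavidin fluorescence for reagent binding, and each polyreactivity label reflects the gate of origin.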

Sequence | polyreactivity (PSR sort gate)
QVQLVESGGGLVQAGGSLRLSCAATGFTIAWYTMGWYRQAPGKERELVAAISLNGGSKYYADSVKGRFTISRDNAKNTVYLQMNSLKPDDTAVYYCAKGYRWPYYPYDYWGQGTQVTVSS | low polyreactivity
QVQLVESGGGLVQAGGSLRLSCAATGFTYYRNARGSYRQAPGKERELVAAISGSGGSTYYADSVKGRFTISRDNATNTVYLQMNSLKPEDTAVYYCAAAAGSYNSGNGYWGLGTQVTVSS | high polyreactivity
QVQLVESGGGLVQAGGSLRLSCAATGGTFTFYAMGWYRQAPGKERELVATINWSGGSTYYADSVKGRFTISRDNAKITVYLQMNSLKPEDTAVYYCNAAWPYKSVEYWGQGTQVTVSS | low polyreactivity
QVQLVESGGGLVQAGGSLRLSCAATGIIFRYAMGWYRQAPGKERELVAAIRKSDGSTYYADSVKGRFTISRDNAKNTVYLQMNSLKPEDTAVYYCATDIVYGNRKGFYYWGQGTQVTVSS | high polyreactivity
QVQLVESGGGLVQAGGSLRLSCAATGIIFSWYAMGWYRQAPVKERELVATISSGAHTYYADSVKGRFTISRDNAKNTVYLQMNRLKPEDTAVYYCGAANEFGVVWAQFDYWGQGPQVTVSS | low polyreactivity
QVQLVESGGGLVQAGGSLRLSCAATGIIFYRNAMGWYRQAPGKERELVASISKRGGSTYYADSVKGRFTISRDNAKNTVYLQMNSLKPEDNAVYYCNTRGGIARQFEIYSWGQGTQVTLSS | high polyreactivity
QVQLVESGGGLVQAGGSLRLSCAATGIIYGYVMGWYRQAPGKERELVAVITRSGGSTYYADSVKGRFTISRDNAMNSVYLQMNSLKPEDTAVYYCAAQGIDILYDYWGQGTQVTVSS | low polyreactivity
QVQLVESGGGLVQAGGSLRLSCAATGINFRAYAMGWYRQAPGKERELVAAISSGGNTNYADSVKGRFTISRDNAKNTVYLQMNSLKPEDTAVYYCAAGYFWGRIKYYYWGQGTQVTVSS | high polyreactivity
QVQLVESGGGLVQAGGSLRLSCAATGLILGRNAMGWYRQAPGKERELVAAITGSGSTNYADSVKGRFTISRDNAKNTVYLQMNSLKPEDTAVYYCAADVRLDPTGLDYLDYDYWGQGTQVTVSS | low polyreactivity
QVQLVESGGGLVQAGGSLRLSCAATGRIFVNAMGWYRQAPGKERELVAAINTRGGSTYYADSVKGRFTISRDNAKNSVYLQMNSLKPEDTAVYYCAARFYTSSRYNYWGQGTQVTVSS | high polyreactivity
QVQLVESGGGLVQAGGSLRLSCAATGRIFYRYSMGWYRQAPGKERELVAAIRYSGGTTYADSVKGRFTISRDNAKNTVYLQMNSLKPEDTAVFYCAARASLWGGFESWGQGTQVTVSS | high polyreactivity
QVQLVESGGGLVQAGGSLRLSCAATGRNFAVNAIGWYRQAPGKERELVASIRWSGGGTYYADSVKGRFTISRDNAKNTVYLQMNCLKPEDTAVYYCKALRKTYRLDYWGQGTQVTVSS | high polyreactivity
QVQLVESGGGLVQAGGSLRLSCAATGRTFIPYAMGWYRQAPGKERELVAAIRTTGGSTYYADSVKGRFTISRDNAKNTVYLQMNSLKPEDTAVYYCAATSRQRPYDYWGQGTQVTVSS | high polyreactivity
QVQLVESGGGLVQAGGSLRLSCAATGRTFRVYAIGWYRHAHAKEREFVATISVRGGSTYYADSVKGRFTISRDNAKNTVYLQMNSLKPEDTAVYYCAADSYPYVYALYDYWGQGTQVTVSS | low polyreactivity
QVQLVESGGGLVQAGGSLRLSCAATGRTFYPYVMGWYRQAAGKERDLVASITDSGGNTYYADSVKGRFTISRDHAKNTVYLQMNSLKPEDTAVYYCNASFYYPSRRGTFQYNYWGHGTQVTVSS | low polyreactivity
QVQLVESGGGLVQAGGSLRLSCAATGRTFYVYAMGWYRQAPGKERELVADITWSGGSTYADSVKGRFTISRDNAKNTVYLQMNSLKPEDTAVYYCAAEWQTWYGVEYDYWGQGTQVTVSS | high polyreactivity
QVQLVESGGGLVQAGGSLRLSCAATGRTLVLYAMGWYRQAPGKERELVAAITWSGDSTYYADSVKGRFSISRDNAKYTVYLQMKSLKPEDTAVYYCAATYLNAKRGLRYDYWGQGTQVSVSS | low polyreactivity
QVQLVESGGGLVQAGGSLRLSCAATGRTSFRYTMGWYRQAPGKERELVAGISGSGGRTYYADSVKGRVTISRDNAKNTVYLQMNSLKPEDTAVYYCAAAWYTSHAKGKGGYWGQGTQVTVSS | high polyreactivity
QVQLVESGGGLVQAGGSLRLSCAATGSILEYYVMGWYRLAPGKERELVAAIRGGGSTYYADAVKGRFTISRDNAKNSVYLQMNSLKPEDTAVEYCAKDSQPARDFDYWGQGTQVTVSS | low polyreactivity
QVQLVESGGGLVQAGGSLRLSCAATGSTFDPNVMGWYRQAPGKEREFVAAISSRSGSTSYADSVKGRFTISRDNAKNTVYLQMNCLKPEVTAVYYCAARVYGLPLRMYSWGQGTQVTLSS | high polyreactivity
QVQLVESGGGLVQAGGSLRLSCAATGSTFFIYAMGWYRQAPGKERELVAAISGSGGTTYYADSVKGRFTISRDNAKNTVYLHMNSLKPEDTAVYYGAARTFSAFWRGGYDYWGQGTQVTVSS | low polyreactivity
QVQLVESGGGLVQAGGSLRLSCAATGSTIEANTMGWYRQAPGKERELVASITTSGGSTNYADSVKGRFTISRDNAKNTVYLQMNSLKPEDTAVYYCAVRSTYARWNWRTADSSRDYWGQGTQVTVSS | low polyreactivity

Sequence | polyreactivity (PSR sort gate)
QVQLVESGGGLVQAGGSLRLSCAATGSTIRSYGMGWYRQAPGKERELVASISWSGGSTYYADSVKGRFTISRDNAKNTVYLQMNSLKPEDTAVYYCAAGTLYSLYFGRHGYWGQGTQVTVSS | low polyreactivity
QVQLVESGGGLVQAGGSLRLSCAATGSTSGKNAMGWYRQAPAKERELFAAIRNSGGTTYYADSVKGRFTISRDNAKNTVYLQMNSLKPEDTAVYYCATRYYLNFLDGYNYWGQGTQVTVSS | high polyreactivity
QVQLVESGGGLVQAGGSLRLSCAATGYIIQHYAMGWYRQSAGKERELVAAITSGGSTTYADSVKWRFTISRDNAKNTVFLQMNSLKPEDSAVYYCKALRRDRYTRKGYEYWGQGTQVTVSS | high polyreactivity
QVQLVESGGGLVQAGGSLRLSCAAYGFIFPGNAMGWYIQAPGKERELVAAISNSGSRTYYADSVKGRFTISRDNAKNTVYLQMNSLKPEDTAVYYCNADVHNRGWPYDYWGQGTQVTVSS | low polyreactivity
QVQLVESGGGLVQAGGSLRLSCAAYGFTFYLNAMGWYRPAPGKERELVAAISYSDGSTYYADSVKGRFTISRDNAKNTVYLQMTSLKPEDTAVYYCAADTTDPGGAYQLMDYWGQGTQVSVSS | low polyreactivity
QVQLVESGGGLVQAGGSLRLSCAAYGGFFWYYTMGRYRQAPGKEREFVATITKRGGRTYYADSVKGRFTISRDNAKITVYLQMNSLKPEDTAVYFCNALGGPKSVRFDYWGQGTQVTVSS | high polyreactivity
QVQLVESGGGLVQAGGSLRLSCAAYGGIFGRYAMGWYRQAPGKERELVAAISKRGGSTYYADSVKGRVTISRDNAKNTVYLQMNSLKPEETAVYYCNAAQSVELGYDYCGQGTQVTVSS | high polyreactivity
QVQLVESGGGLVQAGGSLRLSCAAYGGTFPAYTMGWYRQAPGKERELVAAITWSGGNTYYADSVKGRFTISRDNAKNTVYLQMNSLKPQDTAVYYCAAEYWQYQWSVRIDYEYWGQGTQVNVSS | high polyreactivity
QVQLVESGGGLVQAGGSLRLSCAAYGGTFYRYAMGWYRQAPGKERELVAVISKRGGTTYYADSVKGRFTISRDNAKNTVYLQMNSLKPEDTAVYYCADRPYYWGQGTQVTVSS | high polyreactivity
QVQLVESGGGLVQAGGSLRLSCAAYGGTLPVNAMGWYRQAPVKERELVAAITTGTSTNYADSVKGRFTISRDNAKNTVYLQMNSLKPEDNAVYYCAKDQADFAYGYWGEGTQVTVSS | low polyreactivity
QVQLVESGGGLVQAGGSLRLSCAAYGIIFTDYAMGWYRQAPGKERELVAANSSGGGSTYYADSVKGRFTISRDNAKNTVYLQMNSLKPEDTAVYYFAAQSSGSYGFDHWGQGTQVTVSS | high polyreactivity
QVQLVESGGGLVQAGGSLRLSCAAYGLTFGYYVMGSYRQAPGKERELVADINFSGGSTYYADSVKGRFTISRDNAKNTVYLHMNSLKTEDTAVYYCNAVVYRFTVSSGYESWGEGTQVTVSS | low polyreactivity
QVQLVESGGGLVQAGGSLRLSCAAYGLTFHYYDMGWYRQAPGKERELVAAISAGGVNTYYADSVKGRFTISRDNAKNTVYLQMNSLKPEDTAVYFCAADYYVDVWSYTYGYWGQGTQVTVSS | high polyreactivity
QVQLVESGGGLVQAGGSLRLSCAAYGLTFYFYAMGWYRQAPGKERELVAAIDWGGGSTYYADSVKGRFTISRDNAKNTVYLQMNSLKPEDTAVYYCAARGYYYNYDVNYWGQGTQVTVSS | low polyreactivity
QVQLVESGGGLVQAGGSLRLSCAAYGRIFNEYAMGWYRQAPGKERELVAAITYSDDSTYYADSVKGRFTISRDNAKNTVYLQMISLKPEDTAVYYRNADTPVWDGHAYPVDYWGQGTQVTVSS | low polyreactivity
QVQLVESGGGLVQAGGSLRLSCAAYGRIFRGYAMGRYRQAPGKEREFVAAITKNGGSTYYADSVKGRFTISRDNAKNTVYLQMNSLKPEDTAVYYCAVRALDPYTGKSDYWGQGTQVTVSS | low polyreactivity
QVQLVESGGGLVQAGGSLRLSCAAYGRIFVFYDMGWYRQAPGKDRELVATISFRGGSTYYADSVKGRFTISRDNAKNTVYLQMNCLKPEDTAVYYCAKENKRGYSTSGYYYWGQGTQVTVSS | low polyreactivity
QVQLVESGGGLVQAGGSLRLSCAAYGRISAMGWYRQAPGKERELVAAISRGGSTYYADSVKGRFTISRDNAKNTVYLQMNSLKPEDTAVYYCARRYASTGYDYWGQGTQVTVSS | high polyreactivity
QVQLVESGGGLVQAGGSLRLSCAAYGRTFGPNVMGWYRQAPGKERELVAVITSSGGRTYYADSVKGRFTISRDNAKNTVFLQMNSLKPEDTAVYSCAADAKKFVGTKNAEHVYWGQGTQVTVSS | low polyreactivity
QVQLVESGGGLVQAGGSLRLSCAAYGRTFSWNAMGWYRQAPGKERELVAGITGRGRSTYYADSVKGRFTISRDNAKNTVYLQMIRLKPEDTAVYYCAARNWQALYYGYGYDYWGHGTQVTVSS | high polyreactivity
QVQLVESGGGLVQAGGSLRLSCAAYGRTIFFNAMGWYIQAPGKERELVAAISRGGSRTFYADSVKGRFTISRDNAKNTVYFQMNSLKPEDPAVYYCNAVAQSGRYDYWGQGTQVTVPS | high polyreactivity
